Target: pag_bacan pagA (UniProt P13423)

Substance	effect of a mutation on the interaction
Lethal factor (Bacillus anthracis) (from UniProt P15917) D139A	decreasing interaction
Lethal factor (Bacillus anthracis) (from UniProt P15917) D169A	decreasing interaction
Lethal factor (Bacillus anthracis) (from UniProt P15917) D169K	decreasing interaction
Lethal factor (Bacillus anthracis) (from UniProt P15917) E168A	decreasing interaction
Lethal factor (Bacillus anthracis) (from UniProt P15917) E168K	decreasing interaction
Lethal factor (Bacillus anthracis) (from UniProt P15917) K176A	decreasing interaction
Lethal factor (Bacillus anthracis) (from UniProt P15917) N173A	decreasing interaction
Lethal factor (Bacillus anthracis) (from UniProt P15917) Y141K	decreasing interaction

Reference: IntAct's records for PubMed 16293620
